Data: patent US20190016771A1 (Hoffmann-La Roche, published 2019)

Legend:
[1] = target: T1, human fibroblast activation protein (FAP) on the cell surface (human, UniProt Q12884 1-760); test: flow cytometry on 3T3-huFAP clone 39 cells, detection with FITC-labelled anti-huIgG kappa mouse IgG (clone G18-145), MFI baseline corrected
T1 construct: also called huFAP; NIH/3T3-huFAP clone 39 cells
T1 sequence: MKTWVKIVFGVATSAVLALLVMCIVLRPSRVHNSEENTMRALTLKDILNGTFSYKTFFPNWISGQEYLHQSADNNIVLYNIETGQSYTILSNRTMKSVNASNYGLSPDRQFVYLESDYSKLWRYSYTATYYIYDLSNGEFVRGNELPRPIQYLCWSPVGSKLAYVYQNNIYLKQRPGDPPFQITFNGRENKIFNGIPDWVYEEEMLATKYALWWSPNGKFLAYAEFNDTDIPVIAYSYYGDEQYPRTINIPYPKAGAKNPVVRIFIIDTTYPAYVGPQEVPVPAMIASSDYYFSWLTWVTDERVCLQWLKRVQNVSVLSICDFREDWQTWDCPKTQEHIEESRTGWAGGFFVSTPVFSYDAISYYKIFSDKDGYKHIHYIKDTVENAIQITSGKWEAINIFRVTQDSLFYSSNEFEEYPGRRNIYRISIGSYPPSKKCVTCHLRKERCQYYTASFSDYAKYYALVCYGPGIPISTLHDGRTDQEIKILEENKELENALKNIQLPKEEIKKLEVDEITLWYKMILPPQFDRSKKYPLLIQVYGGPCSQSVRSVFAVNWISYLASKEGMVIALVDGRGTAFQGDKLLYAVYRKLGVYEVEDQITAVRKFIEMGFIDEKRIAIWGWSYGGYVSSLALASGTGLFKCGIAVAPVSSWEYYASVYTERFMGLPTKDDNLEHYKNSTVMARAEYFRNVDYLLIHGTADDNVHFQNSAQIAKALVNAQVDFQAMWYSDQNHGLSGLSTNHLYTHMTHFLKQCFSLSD
Description: For binding assays on FAP expressing cells, the NIH/3T3-huFAP clone 39 cell line was used. To generate this cell line, NIH/3T3 cells were transfected with human FAP (NIH/3T3-huFAP clone 39). The cells were generated by transfection of mouse embryonic fibroblast NIH/3T3 cells (ATCC CRL-1658) with the expression pETR4921 plasmid encoding human FAP under a CMV promoter. Cells were maintained in the presence of 1.5 μg/mL puromycin (InvivoGen, Cat.-No.: ant-pr-5). 0.1×10⁶ of FAP expressing tumor cells were added to each well of a round-bottom suspension cell 96-well plates (Greiner bio-one, cellstar, Cat.-No. 650185). Cells were washed once with 200 μL/well 4° C. cold FACS buffer and resuspended in 50 μL/well of 4° C. cold FACS buffer containing different concentrations of titrated FAP-targeted or DP47-targeted CMP-trimeric 4-1BB ligand-containing antigen binding molecule. Resuspended cells were incubated for 2 hour at 4° C. […] Cells were washed twice with 200 μL/well cold FACS buffer and resuspended in 100 μL/well FACS buffer containing 0.2 μg/mL DAPI (Santa Cruz Biotec, Cat. No. Sc-3598) and acquired the same day using a 5-laser LSR-Fortessa (BD Bioscience with DIVA software).

[2] = target: T2, human 4-1BB (CD137) on the cell surface (human, UniProt Q07011 24-255); test: flow cytometry on activated human CD8+ T cells (PBMC), detection with PE-labelled anti-human IgG F(ab')2-specific goat F(ab')2, median fluorescence, baseline corrected
T2 construct: whole, on cells; also called HeLa-huCD137-NF-kB-luciferase reporter cells
T2 sequence (Q07011 24-255): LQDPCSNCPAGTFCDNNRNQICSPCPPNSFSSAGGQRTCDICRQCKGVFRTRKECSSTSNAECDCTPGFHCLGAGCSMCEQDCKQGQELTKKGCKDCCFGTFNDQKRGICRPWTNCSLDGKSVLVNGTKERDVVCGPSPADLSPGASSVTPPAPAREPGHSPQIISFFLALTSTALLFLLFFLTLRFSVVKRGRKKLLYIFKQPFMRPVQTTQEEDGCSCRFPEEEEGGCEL
Description: Plates were centrifuged 4 minutes with 400×g and at 4° C. and supernatant was discarded. If cells were fixed before acquisition by flow cytometry they were washed once with 200 μL/well DPBS and then stained for 30 min at 4° C. with […] DPBS containing 1:1000 diluted LIVE/DEAD Fixable Aqua Dead Cell Stain (Life technologies, Molecular Probes, Cat-No.: L34957). If cells were acquired the same day and DAPI was used to discriminate dead cells this staining step was skipped. Afterwards cells were washed once with 200 μL cold FACS buffer (DPBS supplied with 2% (v/v) FBS, 5 mM EDTA pH8 (Amresco, Cat. No. E177) and 7.5 mM sodium azide (Sigma-Aldrich S2002)). Next, 50 μL/well of 4° C. cold FACS buffer containing FAP-targeted CMP trimeric 4-1BB ligand-containing antigen binding molecule, DP47-targeted CMP trimeric 4-1BB ligand-containing antigen binding molecule or not-specific binding huIgG1 P329G LALA control antibody were added and cells were incubated for 120 minutes at 4° C. Cells were washed four times with 200 μL/well 4° C. FACS buffer. […]

B1: FAP(28H1)-targeted hu CMP (CMPtd) trimeric human 4-1BBL(71-254)-containing antigen binding molecule (other)
chain: EVQLLESGGGLVQPGGSLRLSCAASGFTFSSHAMSWVRQAPGKGLEWVSAIWASGEQYYADSVKGRFTISRDNSKNTLYLQMNSLRAEDTAVYYCAKGWLGNFDYWGQGTLVTVSSASTKGPSVFPLAPSSKSTSGGTAALGCLVKDYFPEPVTVSWNSGALTSGVHTFPAVLQSSGLYSLSSVVTVPSSSLGTQTYICNVNHKPSNTKVDKKVEPKSCDGGGGSGGGGSEEDPCACESLVKFQAKVEGLLQALTRKLEAVSKRLAILENTVVSGGGGSGGGGSGGGGSGGGGSREGPELSPDDPAGLLDLRQGMFAQLVAQNVLLIDGPLSWYSDPGLAGVSLTGGLSYKEDTKELVVAKAGVYYVFFQLELRRVVAGEGSGSVSLALHLQPLRSAAGAAALALTVDLPPASSEARNSAFGFQGRLLHLSAGQRLGVHLHTEARARHAWQLTQGATVLGLFRVTPEIPAGLPSPRSE
light: EIVLTQSPGTLSLSPGERATLSCRASQSVSRSYLAWYQQKPGQAPRLLIIGASTRATGIPDRFSGSGSGTDFTLTISRLEPEDFAVYYCQQGQVIPPTFGQGTKVEIKRTVAAPSVFIFPPSDEQLKSGTASVVCLLNNFYPREAKVQWKVDNALQSGNSQESVTEQDSKDSTYSLSSTLTLSKADYEKHKVYACEVTHQGLSSPVTKSFNRGEC
notes: Three fusion chains are covalently linked by disulfides of the huCMP trimerization domain; each pairs with one light chain to form a Fab; also called trimeric FAP-huCMP-4-1BBL
With B1 the “EC50 (read off the curve)” value [1] was about 0.7 nM and the “EC50 (read off the curve)” value [2] was about 0.6 nM.
